Where two headings read alike, the source gives them in different places.
What was measured:
[1] = test system: retinoblastoma (Rb)-positive tumor cells; conditions: cited from earlier work
[2] = molecular target: T1, CDK4/Cyclin D1 (Homo sapiens, UniProt P24385); experiment: CDK4/Cyclin D1 in vitro kinase assay (32P filter capture, GST-Rb substrate); type: biochemical
T1 construct: performed using full-length recombinant CDK2/cyclin A2 and CDK4/Cyclin D1; GST (N); purchased SignalChem, Richmond, Canada; host or cells: Sf9 insect cells (baculovirus)
T1 sequence (P24385 whole entry): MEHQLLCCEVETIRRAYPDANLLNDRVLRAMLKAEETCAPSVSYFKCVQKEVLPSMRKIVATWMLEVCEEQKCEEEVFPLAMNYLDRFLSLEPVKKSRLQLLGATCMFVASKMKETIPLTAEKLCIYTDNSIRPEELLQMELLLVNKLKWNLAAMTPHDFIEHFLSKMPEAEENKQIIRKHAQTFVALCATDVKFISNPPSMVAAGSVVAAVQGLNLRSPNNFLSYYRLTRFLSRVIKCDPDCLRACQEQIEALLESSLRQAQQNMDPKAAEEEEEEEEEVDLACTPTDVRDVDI
T1 sequence (P11802 whole entry partner): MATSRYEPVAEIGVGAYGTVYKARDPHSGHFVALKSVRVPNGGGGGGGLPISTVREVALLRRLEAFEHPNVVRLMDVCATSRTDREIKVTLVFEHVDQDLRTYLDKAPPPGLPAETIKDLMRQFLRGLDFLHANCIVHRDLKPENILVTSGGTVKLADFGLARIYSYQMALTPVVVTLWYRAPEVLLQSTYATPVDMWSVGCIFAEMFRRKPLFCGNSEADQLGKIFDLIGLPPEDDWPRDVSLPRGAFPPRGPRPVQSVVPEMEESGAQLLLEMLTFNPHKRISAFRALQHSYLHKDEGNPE
Experimental: CDK2/Cyclin A2 and CDK4/Cyclin D1 kinase assays were performed using full-length recombinant CDK2/cyclin A2 and CDK4/Cyclin D1 co-expressed by baculovirus in Sf9 insect cells using an N-terminal GST tag on both proteins. […] The [^32P]-ATP Assay cocktail was prepared in a designated radioactive working area by adding 150 ul of 10 mM ATP stock solution, 100 ul[^32P]-ATP (1 mCi/100 ul), 5.75 ml of kinase assay buffer I. 10 mM ATP Stock Solution was prepared by dissolving 55 mg of ATP in 10 ml of kinase assay buffer I. Store 200 μl aliquots at −20° C. […] The reaction was initiated by the addition of 5 μl [^32P]-ATP assay cocktail bringing the final volume up to 25 μl and incubating the mixture in a water bath at 30° C. for 15 minutes. After the incubation period, the reaction was terminated by spotting 20 μl of the reaction mixture onto individual pre-cut strips of phophocellulose P81 paper. The pre-cut P81 strip was air-dried and sequentially washed in a 1% phosphoric acid solution with constant gentle stirring. Radioactivity on the P81 paper was counted in the presence of scintillation fluid on a scintillation counter. […]
Activities of peptides previously tested against CDK2A and CDK4D were determined using this assay format.

Row | Compound | cell cycle effect [1] | activity in the CDK4/cyclin D1 kinase assay (in words) [2] | activity in the CDK4/cyclin D1 kinase assay (in words) ([2]; listed as p21 X8 derivative)
1 | CC(=O)c1c(C)c2cnc(Nc3ccc(N4CCNCC4)cn3)nc2n(C2CCCC2)c1=O [PD0332991] | G1 arrest | – | –
2 | HAKRRLIX8: HAKRRLIX with X8 = 4-pyridylalanine, SEQ ID NO: 24 | – | no observable activity | loses all activity
